Tests used:
[1] = target: T1, PYL9 fused to the GAL4-DNA-binding domain (BD-PYL9) (Arabidopsis); assay: yeast two-hybrid, growth on media lacking His with and without ABA
T1 construct: Y2H bait; also called pBD-GAL4-PYL9

PP2CA = target: T2, PP2CA (Arabidopsis, UniProt P49598 1-399); assay: tandem affinity purification (anti-HA agarose, GFP-Trap) from seedlings, MS identification
T2 construct: Endogenous protein co-purified from seedlings and identified by MS
T2 sequence (looked up): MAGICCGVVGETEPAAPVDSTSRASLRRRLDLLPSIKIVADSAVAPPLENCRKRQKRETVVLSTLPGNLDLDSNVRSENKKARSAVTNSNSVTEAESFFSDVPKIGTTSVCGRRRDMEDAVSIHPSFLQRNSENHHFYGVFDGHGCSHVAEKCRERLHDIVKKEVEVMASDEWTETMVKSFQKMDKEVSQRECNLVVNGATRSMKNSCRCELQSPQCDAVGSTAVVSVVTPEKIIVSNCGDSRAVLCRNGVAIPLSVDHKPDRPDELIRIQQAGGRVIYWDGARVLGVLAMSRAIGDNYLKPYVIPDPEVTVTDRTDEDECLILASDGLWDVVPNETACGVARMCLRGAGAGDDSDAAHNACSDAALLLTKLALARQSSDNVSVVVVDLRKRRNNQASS
Experimental: (§1) Ten-day-old seedlings of the transgenic Arabidopsis plants expressing ProPYL9:PYL9-HA-YFP (FIG. 12A) were used for tandem affinity purification. Seedlings (3-4 g fresh weight) were treated for 1 h with ½ Murashige and Skoog medium containing 100 μM ABA or 30 min with ½ Murashige and Skoog medium containing 0.8 M mannitol; for the control, seedlings were treated with ½ Murashige and Skoog medium for 1 h. After treatment, samples were quickly frozen, ground in liquid N₂, homogenized in an equal volume of 2× immunoprecipitation (IP) buffer (100 mM Tris.HCl, pH 7.5, 300 mM NaCl, 2 mM EDTA, 0.2% Nonidet P-40, 2× protease mixture; Roche), and then, centrifuged at 30,000×g for 30 min at 4° C. The supernatant was passed through a 0.2-μM filter and centrifuged again at 30,000×g for 30 min at 4° C. After that, the supernatant was incubated with 40 μL 50% (vol/vol) slurry of monoclonal anti-HA agarose with antibody produced in mouse (A2095; Sigma), which was prebalanced with 1×IP buffer. The mixture was inverted for 1 h at 4° C. on a shaker. The agarose was then washed four times with 1×IP buffer, three times with high NaCl buffer (50 mM Tris.HCl, pH 7.5, 500 mM NaCl, 1 mM EDTA), and finally, three times with 1×IP buffer. The protein that had bound to the anti-HA agarose was eluted by HA peptide (ab13835; Abcam) with a concentration of […] in 200 μL 1×IP buffer overnight at 4° C. […]

ABA-insensitive 1 (ABI1) = target: T3, ABA-insensitive 1 (ABI1) (Arabidopsis, UniProt P49597 1-434); assay: as above
T3 construct: Endogenous protein in the TAP-MS experiment
T3 sequence (looked up): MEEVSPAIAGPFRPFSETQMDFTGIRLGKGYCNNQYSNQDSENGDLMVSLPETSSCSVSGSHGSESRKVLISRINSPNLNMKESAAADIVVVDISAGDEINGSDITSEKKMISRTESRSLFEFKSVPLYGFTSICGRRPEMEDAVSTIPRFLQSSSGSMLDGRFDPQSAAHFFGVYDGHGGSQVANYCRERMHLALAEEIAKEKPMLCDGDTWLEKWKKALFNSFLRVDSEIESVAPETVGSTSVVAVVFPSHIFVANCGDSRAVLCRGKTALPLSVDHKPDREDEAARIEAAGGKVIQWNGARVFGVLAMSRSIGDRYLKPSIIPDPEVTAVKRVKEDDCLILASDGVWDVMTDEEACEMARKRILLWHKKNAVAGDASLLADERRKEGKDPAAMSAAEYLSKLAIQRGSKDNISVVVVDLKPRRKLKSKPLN
Experimental: as §1

ABF2, Q9M7Q4 = target: T4, ABF2, Q9M7Q4
T4 chain: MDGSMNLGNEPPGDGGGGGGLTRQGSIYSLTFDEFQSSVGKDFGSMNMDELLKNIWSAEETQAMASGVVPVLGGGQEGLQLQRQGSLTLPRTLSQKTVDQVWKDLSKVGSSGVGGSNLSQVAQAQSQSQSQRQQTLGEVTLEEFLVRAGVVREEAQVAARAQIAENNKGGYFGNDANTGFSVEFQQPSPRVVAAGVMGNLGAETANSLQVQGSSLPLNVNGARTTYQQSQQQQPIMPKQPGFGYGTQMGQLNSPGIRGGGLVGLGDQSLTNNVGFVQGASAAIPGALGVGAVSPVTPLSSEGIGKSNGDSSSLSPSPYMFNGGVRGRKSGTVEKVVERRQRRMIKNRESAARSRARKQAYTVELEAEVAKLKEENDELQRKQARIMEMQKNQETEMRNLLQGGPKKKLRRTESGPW

B1: activating domain (AD) alone (other, UniProt P04386 768-881, looked up)
chain: ANFNQSGNIADSSLSFTFTNSSNGPNLITTQTNSQALSQPIASSNVHDNFMNNEITASKIDDGNNSKPLSPGWTDQTAYNAFGITTGMFNTTTMDDVYNYLFDDEDTPPNPKKE
notes: Negative control prey in the Y2H assay
- binding result [1]: no binding

B2: HA- and YFP-tagged PYL9 (PYL9-HA-YFP) (receptor)
chain: MMDGVEGGTAMYGGLETVQYVRTHHQHLCRENQCTSALVKHIKAPLHLVWSLVRRFDQPQKYKPFVSRCTVIGDPEIGSLREVNVKSGLPATTSTERLELLDDEEHILGIKIIGGDHRLKNYSSILTVHPEIIEGRAGTMVIESFVVDVPQGNTKDETCYFVEALIRCNLKSLADVSERLASQDITQ
notes: Expressed under the native PYL9 promoter in transgenic Arabidopsis seedlings; also called ProPYL9:PYL9-HA-YFP; not shown: 3HA tag at the C terminus; YFP tag at the C terminus
- binding result (PP2CA): binds
- binding result (ABA-insensitive 1 (ABI1)): binds

B3: SnRK2.6 (protein)
chain: MDRPAVSGPMDLPIMHDSDRYELVKDIGSGNFGVARLMRDKQSNELVAVKYIERGEKIDENVKREIINHRSLRHPNIVRFKEVILTPTHLAIVMEYASGGELFERICNAGRFSEDEARFFFQQLISGVSYCHAMQVCHRDLKLENTLLDGSPAPRLKICDFGYSKSSVLHSQPKSTVGTPAYIAPEVLLKKEYDGKVADVWSCGVTLYVMLVGAYPFEDPEEPKNFRKTIHRILNVQYAIPDYVHISPECRHLISRIFVADPAKRISIPEIRNHEWFLKNLPADLMNDNTMTTQFDESDQPGQSIEEIMQIIAEATVPPAGTQNLNHYLTGSLDIDDDMEEDLESDLDDLDIDSSGEIVYAM
- SAG12-LUC expression in protoplasts (ABF2, Q9M7Q4): Expression of SnRK2.6 significantly enhanced the ability of ABF2 to increase SAG12-LUC expression in the presence of ABA
